Test results: patent US20260116960A1 (SHANGHAI HONGCHENG BIOPHARMACEUTICAL, published 2026)

What was measured:
[1] = biological target: T1, human PD-1 protein (Acro, Catalog No. PD1-H5221) (human, UniProt Q15116 25-167); experiment: ELISA, plate coated with human PD-1 protein
T1 construct: Bought protein; also called human PD1-his; not shown: his tag
Experimental: ELISA was used to determine the activity of the trispecific antibodies binding to the PD-1 protein: 1 μg/mL human PD-1 protein (Acro, Catalog No.: PD1-H5221) was used to coat a high-adsorption 96-well ELISA plate and incubated at 4° C. overnight. On the next day, the plate was washed three times with PBST solution and blocked with 1% BSA-PBS solution at 37° C. for 1 hour. At the same time, 3-fold gradient dilutions of the antibody were prepared with 1% BSA-PBS solution, with a starting concentration of 10 nM. The antibodies of each gradient concentration were added to the blocked 96-well ELISA plate at 100 µL/well in triplicate and incubated at 37° C. for 1 hour. The plate was then washed three times with 0.05% PBST solution, and 100 μL/well of HRP-labeled secondary antibody (Sigma, Catalog No.: A0170) diluted at 1:5000 was added to the ELISA plate and incubated at 37° C. for 1 hour. The plate was washed three times with 0.05% PBST solution and developed with TMB. The absorbance of the 96-well ELISA plate at 450 nm was detected by an ELISA reader. The OD₄₅₀ value was fitted using a four-parameter model to calculate the EC₅₀ value of each antibody binding to PD-1.

[2] = biological target: T2, human PD-1 on the cell surface (human, UniProt Q15116 25-288); experiment: flow cytometry, 293T-hPD-1 cells, batch FACS#1
T2 construct: whole, on cells; also called cell surface PD-1
T2 sequence (Q15116 25-288): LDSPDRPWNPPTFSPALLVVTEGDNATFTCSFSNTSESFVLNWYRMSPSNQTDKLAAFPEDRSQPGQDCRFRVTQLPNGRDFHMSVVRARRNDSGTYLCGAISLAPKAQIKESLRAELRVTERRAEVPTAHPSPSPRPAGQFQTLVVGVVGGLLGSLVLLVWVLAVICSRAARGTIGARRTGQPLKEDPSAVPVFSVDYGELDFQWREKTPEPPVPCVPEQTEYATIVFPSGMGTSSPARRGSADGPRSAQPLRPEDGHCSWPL
Experimental: (§1) After centrifugation at 300 g for 5 minutes, the supernatant was discarded. The antibodies were serially diluted 3-fold with FACS buffer to obtain two gradient series solution FACS #1 and FACS #2, with the starting concentration of 200 nM (Table 5, FACS #1) or 100 nM (Table 5, FACS #2, FIG. 2), respectively. Then 100 μL/well was added to a 96-well plate in triplicate, mixed, and incubated at 4° C. for 60 min. The plate was centrifuged and washed three times with FACS buffer. 100 μL/well of 1:800 diluted AF647-anti-hIgG(H+L) (Jackson, Catalog No.: 109-605-003) was added and incubated at 4° C. for 50 minutes. After washing the plate three times with FACS buffer, 100 μL/well of FACS buffer was added to resuspend the cells, and the fluorescence signal was detected on a flow cytometer (BECKMAN COULTER cytoFLEX). The binding activity was fitted using a four-parameter model to calculate the EC₅₀ value of each antibody binding to PD-1.

[3] = biological target: T2, human PD-1 on the cell surface; experiment: flow cytometry, 293T-hPD-1 cells, batch FACS#2
Experimental: as §1

[4] = biological target: T2, human PD-1 on the cell surface; experiment: flow cytometry, 293T-hPD-1 cells, comparison with pembrolizumab
Experimental: as §1

[5] = biological target: human PD-1 protein (Acro, PD1-H5257) (human, UniProt Q15116 25-167); experiment: competitive ELISA, PD-1 coated, biotin-PD-L1 as labelled ligand
Chain of human PD-1 protein (Acro, PD1-H5257) (Q15116 25-167 limits assumed): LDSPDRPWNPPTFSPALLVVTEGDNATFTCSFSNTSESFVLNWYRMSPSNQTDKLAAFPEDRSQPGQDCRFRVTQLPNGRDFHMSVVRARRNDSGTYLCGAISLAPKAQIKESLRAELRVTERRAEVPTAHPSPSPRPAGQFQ
Experimental: The next day, the plate was washed three times with PBS solution and blocked with 1% BSA-PBS solution at 37° C. for 1 hour. […] 100 μL of the antibody-protein mixture was added to each well of the blocked 96-well ELISA plate and incubated at 37° C. for 1 hour. After washing four times with PBST, 100 μL of Strep-HRP (BD, Catalog No. 554066) diluted 1:5000 was added to each well of the ELISA plate and incubated at 37° C. for 1 hour. After washing 4 times with PBST, TMB was used for color development. The absorbance at 450 nm and 630 nm was detected by a microplate reader, and OD450-OD630 was calculated. The fluorescence intensity was fitted using a four-parameter model, and the IC₅₀ value of the blocking activity of each antibody was calculated.

[6] = biological target: T2, human PD-1 on the cell surface; experiment: flow cytometry competition, 293T-hPD-1 cells, biotin-human PD-L1
Experimental: 50 μL of antibody solution serially diluted 3-fold in FACS buffer was added in triplicate, with a starting concentration of 200 nM. After mixing, incubated at 4° C. for 60 minutes. After washing three times with FACS buffer, 100 μL/well of 1:800 diluted PE Streptavidin was added and incubated at 4° C. for 50 min. After washing three times with FACS buffer, 150 μL/well of PBS was added to resuspend the cells, and the fluorescence signal was detected on a flow cytometer (BECKMAN COULTER cytoFLEX). The four-parameter model was used to fit the binding activity and the IC₅₀ value of the blocking activity of each antibody was calculated.

[7] = biological target: T2, human PD-1 on the cell surface; experiment: flow cytometry on activated human T cells (CD3+), PE anti-human IgG Fc
Experimental: (§2) Human peripheral blood mononuclear cells (PBMCs, Miaoshun (Shanghai) Biotechnology Co., Ltd., Catalog No.: A19K154025) were rapidly thawed in a 37° C. water bath, resuspended in T cell isolating solution, and counted. After centrifugation at 400 g for 10 minutes, the supernatant was removed and the cells were resuspended to 5×10⁷ cells/mL with T cell separation buffer. T cells were isolated according to the procedure of a T cell isolation kit (Stemcell, Catalog No.: 19051), and the obtained T cells were resuspended in culture medium. The cells were counted using NucleoCounter NC-200 and the T cell density was adjusted to approximately 1×10⁶ cells/mL. Dynabeads containing anti-CD3 and anti-CD28 antibodies (Invitrogen™, Catalog No.: 11132D) and 10 ng/ml hIL-2 (Peprotech, Catalog No.: 200-02) were added and cultured in a 37° C., 5% CO₂ incubator for 3 days. After removing Dynabeads and supernatant, the activated T cells were resuspended in FACS buffer. The cell density was adjusted to about 1×10⁶ cells/mL, and 100 μL of cell solution was added into a 96-well U-bottom plate, 1×10⁵ cells/well. After centrifugation at 500 g for 5 minutes, the supernatant was discarded and 100 μL of the trispecific antibody solution of the present application serially diluted 3-fold with FACS buffer was added in triplicate, with a starting concentration of 200 nM. After mixing, incubated at 4° C. for 60 minutes. After centrifugation and washing three times with FACS buffer, 100 μL/well of PE anti-human IgG Fc (Biolegend, Catalog No.: 366903) was added and incubated at 4° C. for 50 minutes. After washing the plate three times with FACS buffer, 100 μL/well of BV421 anti-human CD3 antibody (OKT3) (Biolegend, Catalog No.: 317344) was added and incubated at 4° C. for 50 minutes. After washing the plate three times with FACS buffer, 70 μL/well of PBS solution was added to resuspend the cells, and the fluorescent signal on CD3 T cells was detected on a flow cytometer (BD Cellesta). The binding activity was fitted using a four-parameter model, and the EC₅₀ value of each antibody binding to T cells was calculated.

[8] = biological target: T1, human PD-1 protein (Acro, Catalog No. …); experiment: BLI (Octet RED96e), antibody on AHC sensor, antigen as analyte 6.25-100 nM, 1:1 model
Experimental: Octet® RED96e (ForteBio) was used to detect the affinity of trispecific antibodies to human PD-1, CTLA-4 and VEGFA. The specific method was as follows: the AHC Sensor was immersed in PBST (PBS containing 0.02% Tween) buffer for 10 minutes to activate the Sensor. The ligand (antibody to be tested) was diluted to 5 μg/mL with PBST buffer. […] The diluted ligand and analyte were added to the corresponding wells at 200 μL/well in triplicate. Program parameter settings: loading: 180 s, association: 180 s, dissociation: 600 s, regeneration: Gly-HCl pH 1.5, 30s, regeneration 3 times. […] Curve fit acceptance criteria: Full R\hat{ }2≥0.95.

[9] = biological target: T2, human PD-1 on the cell surface; experiment: blocking of PD-L1 binding to cell surface PD-1, comparison with pembrolizumab; comparison run with pembrolizumab, cell surface PD-1
[10] = biological target: T3, human CTLA-4 on the cell surface (human, UniProt P16410 36-223); experiment: flow cytometry, CHO-hCTLA-4 cells, batch FACS#3
T3 construct: whole, on cells; also called CHO-hCTLA-4 cells; CHOK1-hCTLA4 cells
T3 sequence (P16410 36-223): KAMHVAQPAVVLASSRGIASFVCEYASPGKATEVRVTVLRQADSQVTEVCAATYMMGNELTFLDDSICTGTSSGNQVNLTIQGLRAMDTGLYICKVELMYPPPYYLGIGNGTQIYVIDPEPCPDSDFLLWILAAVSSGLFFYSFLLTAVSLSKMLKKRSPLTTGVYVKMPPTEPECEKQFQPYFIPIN

[11] = biological target: T3, human CTLA-4 on the cell surface; experiment: flow cytometry competition, CHO-hCTLA-4 cells, biotin-human CD80
Experimental: CHO-hCTLA-4 cells were obtained by trypsin digestion, washed twice with PBS containing 2% FBS (FACS buffer), and resuspended in FACS buffer. 200 μL of the cells were added to a 96-well U-bottom plate, approximately 2×10⁵ cells/well. After centrifugation at 300 g for 5 minutes, the supernatant was discarded. […] After washing three times with FACS buffer, 100 μL/well of 1:800 diluted PE Streptavidin was added and incubated at 4° C. for 50 min. After washing three times with FACS buffer, 150 μL/well of PBS was added to resuspend the cells, and the fluorescence signal was detected on a flow cytometer (BECKMAN COULTER cytoFLEX). The four-parameter model was used to fit the binding activity and the IC₅₀ value of the blocking activity of each antibody was calculated.

[12] = biological target: T3, human CTLA-4 on the cell surface; experiment: flow cytometry on activated human T cells (CD3+), PE anti-human IgG Fc
Experimental: as §2

[13] = biological target: T3, human CTLA-4 on the cell surface; experiment: flow cytometry competition, 293T-hPD-1-hCTLA-4 cells (PD-1 co-expressed), biotin-human CD80
Experimental: PD-1 and CTLA-4 are co-expressed on functionally exhausted T cells in the tumor microenvironment, and the expression level of PD-1 is higher than that of CTLA-4. […] 200 μL of the cells were added to a 96-well U-bottom plate, approximately 1.4×10⁵ cells/well. After centrifugation at 300 g for 5 minutes, the supernatant was discarded. […] After washing three times with FACS buffer, 100 μL/well of 1:800 diluted PE Streptavidin was added and incubated at 4° C. for 50 min. After washing three times with FACS buffer, 150 μL/well of PBS was added to resuspend the cells, and the fluorescence signal was detected on a flow cytometer (BECKMAN COULTER cytoFLEX). The binding activity was fitted using a four-parameter model, and the IC₅₀ value of the blocking activity of each antibody was calculated.

T1 sequence (Q15116 25-167 limits assumed): as the sequence (Q15116 25-167 limits assumed) above

B1: CQ1-3/1-11-hIgG4 antibody (antibody, V domains shown)
VH: EVQLVESGGGLVQPGGSLRLSCAASGFTFSSYGMSWVRQAPGKGLEWVSTISGGGRDTYYPDSVKGRFTISRDNSKNTLYLQMNSLRAEDTAVYYCARQNGITWFADWGQGTLVTVSS
VL: DIQMTQSPSSLSASVGDRVTITCRASESVDNYGISFMNWYQQKPGKAPKLLIYAASNQGSGVPSRFSGSGSGTDFTLTISSLQPEDFATYYCQQSKEVPWTFGGGTKVEIKR
notes: also called anti-PD-1 antibody CQ1-3/1-11
In the case of B1, the EC50 [1] is reported as 0.041 nM, the EC50 [2] is reported as 2.8 nM and the EC50 [3] is reported as 1.12 nM. For the same binder, the EC50 [4] was 4.34 nM, the IC50 [5] was 0.731 nM and the IC50 [6] was 4 nM. It also gave an EC50 [7] of 0.244 nM, a Kd [8] of 1.96 nM and an IC50 [9] of 3.19 nM.

B2: 202F1-hIgG4 antibody (antibody, V domains shown)
VH: EVQLLESGGGLVQPGGSLRLSCAASGSIFSINHMAWYRQAPGKQRELVAGVNSRGTTNYVDSVKGRFTISRDNSKNTLYLQMNSLRAEDTAVYYCRALGGAVAAWGQGTLVTVSS
For B2, the EC50 [10] was 2.31 nM, the IC50 [11] was 10.1 nM and the EC50 [12] was 1.46 nM. It also gave an IC50 [13] of 4.74 nM.
